Measured values reported in article PMC12343034, “ArnR binds a [4Fe–4S] cluster and indirectly senses anaerobicity in Corynebacteria”.

T1: ArnR ([4Fe-4S] form) (Corynebacterium glutamicum ATCC 13032, UniProt Q8NR72 1-230)
T1 sequence: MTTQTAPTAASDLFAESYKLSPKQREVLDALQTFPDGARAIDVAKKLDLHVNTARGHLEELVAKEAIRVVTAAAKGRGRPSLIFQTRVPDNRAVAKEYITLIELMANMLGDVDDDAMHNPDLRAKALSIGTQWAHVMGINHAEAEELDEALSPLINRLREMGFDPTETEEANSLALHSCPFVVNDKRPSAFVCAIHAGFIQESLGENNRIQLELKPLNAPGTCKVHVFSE


Tests used:
ArnR ([4Fe-4S] form) [1] = target: T1, ArnR ([4Fe-4S] form); assay: EMSA; [4Fe-4S]; maximal binding at ~315 nM [4Fe-4S] (~32-fold over DNA); SPR: HBS+P (10 mM HEPES, 150 mM NaCl, surfactant P20) with 1 mM DTT, pH 7.4, 25 C, anaerobic; EMSA: 10 mM Tris, 54 mM KCl, 0.3% glycerol, pH 7.5, on ice; native MS: DNA in 100 mM ammonium acetate, pH 8; conditions: protein: recombinant; tags: C-terminal His; chain copies: 2; label: 5' 6-FAM on strand 1; blunt
ArnR ([4Fe-4S] form) [2] = target: T1, ArnR ([4Fe-4S] form); assay: native MS; [4Fe-4S], two clusters per dimer; complex at 71438 Da; [4Fe-4S]:[DNA] ~1; SPR: HBS+P (10 mM HEPES, 150 mM NaCl, surfactant P20) with 1 mM DTT, pH 7.4, 25 C, anaerobic; EMSA: 10 mM Tris, 54 mM KCl, 0.3% glycerol, pH 7.5, on ice; native MS: DNA in 100 mM ammonium acetate, pH 8; conditions: protein: recombinant; tags: C-terminal His; chain copies: 2; blunt

Row | Binder | binding result (ArnR ([4Fe-4S] form) [1]) | binding result (ArnR ([4Fe-4S] form) [2])
1 | hmp promoter 80 bp (JC01_F/JC02_R) (dsDNA) DNA 1: CGCCTTTCCATGCTTCATGGGTTAATTTCTACGGATTTAATCTAATTAAATAAATCCCAGGATCCAAGCAATTTGGCCTT DNA 2: AAGGCCAAATTGCTTGGATCCTGGGATTTATTTAATTAGATTAAATCCGTAGAAATTAACCCATGAAGCATGGAAAGGCG | binds | 
2 | hmp promoter 30 bp (JC05_F/JC06_R) (dsDNA) DNA 1: GGATTTAATCTAATTAAATAAATCCCAGGA DNA 2: TCCTGGGATTTATTTAATTAGATTAAATCC |  | binds
